Data: patent US6720153B1, “Luciferase reporter bioassay of parathyroid hormone compounds” (Aventis Pharmaceuticals Inc., priority 1998, dated 2004)

Molecular target: T1, PTH receptor (Homo sapiens, UniProt Q03431)
T1 construct: expressed in transfected cells; host or cells: HEK-293
T1 sequence (Q03431 27-593): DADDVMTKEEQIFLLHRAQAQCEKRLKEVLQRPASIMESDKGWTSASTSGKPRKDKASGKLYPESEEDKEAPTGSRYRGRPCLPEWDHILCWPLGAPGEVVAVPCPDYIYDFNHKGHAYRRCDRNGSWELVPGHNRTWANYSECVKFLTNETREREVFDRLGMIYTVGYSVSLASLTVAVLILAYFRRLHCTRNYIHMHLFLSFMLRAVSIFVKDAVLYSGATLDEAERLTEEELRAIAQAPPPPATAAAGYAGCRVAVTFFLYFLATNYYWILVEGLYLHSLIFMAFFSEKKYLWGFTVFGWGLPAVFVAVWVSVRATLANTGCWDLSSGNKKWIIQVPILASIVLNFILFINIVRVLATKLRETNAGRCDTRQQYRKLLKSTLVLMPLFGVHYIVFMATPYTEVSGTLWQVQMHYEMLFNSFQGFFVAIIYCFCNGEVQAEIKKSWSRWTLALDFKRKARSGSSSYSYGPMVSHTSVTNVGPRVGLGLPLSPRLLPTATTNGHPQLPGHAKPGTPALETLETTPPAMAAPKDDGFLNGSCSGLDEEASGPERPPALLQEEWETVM
Assay: Luciferase reporter assay in hPTH receptor-expressing HEK-293 cells
Type: cell-based
Settings: clones of PTH receptor expressing HEK-293 cells bearing pMCL3zeo luciferase reporter gene; clones selected for assay development
Source text: This cell line is obtained as described by Pines et al., Endocrinology, 1994, 135(4), 1713-1716, incorporated herein by reference.
The firefly luciferase reporter gene bearing the cAMP responsive elements is amplified by PCR from the pDMC16LUC vector using the method of Spengler et al., Nature, 1993, 365: 170-175, incorporated herein by reference. The PCR product containing the MMTV promoter, sixteen cAMP responsive elements and the luciferase gene is inserted into the zeocin resistant vector (pUTSV1 from InVitrogen). The final vector, termed pMCL3zeo, is then introduced into PTH receptor expressing HEK-293 cells using the lipofectamine method (reagents and method obtained from Gibco/BRL). Cells incorporating the luciferase reporter gene are selected by including zeocin in the culture medium. By limited dilution, different cell clones are isolated and expanded. These clones are tested for their responsiveness to PTH in terms of luciferase expression.
hPTH receptor-expressing HEK-293 cells bearing the luciferase reporter gene are cultured to 80-90% confluency. […] The luciferase activity in the lysates is measured by the addition of the luciferin substrate (Promega assay kit) to effect light production. The output of light is measured in a Wallac Trilux microbeta plate reader.

luciferase induction: 5-6 fold
Substance: parathyroid hormone [PTH]
